Data from paper PMC5606850, “Acidic C-terminal domains autoregulate the RNA chaperone Hfq” (eLife, 2017).

Key:
[1] = tested on: RNA molecular beacon and Target RNA; assay: RNA annealing kinetics (molecular beacon and Target RNAs), stopped-flow fluorescence; assay type: biochemical; details: 50 nM molecular beacon, 100 nM Target, Hfq65 variants, TNK buffer, 30 °C
Protocol: (§1) Figure 2. CTD and RNA occupy the same rim binding site. […] The CTD linker is shown in purple, the acidic tip in red and the N-terminal FITC as a yellow star. Hfq core is shown in cyan, with basic rim patches in dark blue. […] (C) Reaction scheme for annealing an RNA molecular beacon to a target RNA (open bar) ([Hopkins et al., 2011]; [Panja et al., 2015]). (D) Progress curves for annealing 50 nM molecular beacon and 100 nM Target by 50 nM Hfq65 hexamer at 30°C, measured by stopped-flow fluorescence. See Figure 2—figure supplement 3 for further data. (E) Contribution of core residues to CTD binding. Interaction energy (Expected Energetic Contribution; EEC) in silico for a core residue in the Rosetta models (solid symbols and solid line; adjusted R^2 = 0.77) or the average annealing rates for Target and Target-A18 relative to Hfq65 (open symbols and dashed line; adjusted R^2 = 0.94) versus experimental CTD binding energy (∆∆G°) for each Hfq65 variant. The binding energy, ∆∆G° = –RTln(Kd^MUT/Kd), reflects the perturbation to CTD binding by a mutation in Hfq65. The interaction energy in silico or EEC is defined as the average energy of a tail–core interaction multiplied by the average number of tail–core interactions per model (Figure 1B, top and Equation 3). The relative annealing rate for Hfq65 variants, krel = kobs^MUT/kobs^WT, is <1 if the mutated residue is important for RNA annealing. Figure 2—figure supplement 1. SDS-PAGE of purified Hfq variants. […] Annealing of 100 nM Target RNA to 50 nM beacon RNA by Hfq65 and Hfq65 variants was measured by stopped flow fluorescence at 30°C in 1 × TNK buffer. […] The change in fluorescence emission intensity was normalized to the maximum fluorescence within an experiment. […]
To determine how much core residues that bind the CTD contribute to Hfq’s RNA annealing activity, we compared the effect of rim mutations on the rate of base pairing between an RNA molecular beacon and the 16 nt Target RNA by stopped-flow fluorescence spectroscopy (Figure 2C) ([Hopkins et al., 2011]). […]

[2] = SDS-PAGE oligomerization of purified Hfq variants; assay type: physicochemical, E. coli; details: 4–20% SDS-PAGE, ~2.8 µg protein, 2% SDS, boiled
Protocol: as §1, with “variants. WT Hfq assembles into hexamers and dodecamers that are stable to SDS-PAGE, which can be used to evaluate the oligomerization of Hfq variants. Purified Hfq protein (~2.8 µg) was separated on a 4–20% SDS-PAGE gel and stained with Coomassie blue (lanes 2–6). Samples were prepared in 2% SDS and boiled before loading. Lane 1, Protein standards (10 µL All Blue Precision Plus, […]).” for “variants.”

Hfq102 (wild-type Hfq) = Hfq102 (wild-type Hfq) (Escherichia coli, UniProt P0A6X3 1-102); assay: competition; vs pUC19 EMSA; strongest, saturates at 1:1; Anisotropy: 10 mM Tris-HCl pH 7.5, 50 mM NaCl, 50 mM KCl, 30 C; CTD-FITC competition: 50 mM Tris-HCl pH 7.5, 30 C; pUC19 EMSA: 40 mM Tris-HCl pH 7.5, 0.14 mM EDTA, 35 mM NH4Cl, 3.7% glycerol, 25 C (competition legend 30 C); details: protein: recombinant, tags: untagged, chain copies: 6
[3] = molecular target: Hfq65 (Hfq core, CTD deleted) (Escherichia coli, UniProt P0A6X3 1-65); assay: competition; displaces CTD-FITC peptide; strong; IC50 only in figure; Anisotropy: 10 mM Tris-HCl pH 7.5, 50 mM NaCl, 50 mM KCl, 30 C; CTD-FITC competition: 50 mM Tris-HCl pH 7.5, 30 C; pUC19 EMSA: 40 mM Tris-HCl pH 7.5, 0.14 mM EDTA, 35 mM NH4Cl, 3.7% glycerol, 25 C (competition legend 30 C); details: protein: recombinant, tags: untagged, chain copies: 6

Molecule: Hfq65-Q35A
- observed annealing rate of Hfq65 rim mutants [1]: relatively unaffected

Molecule: Hfq102-R16A: rim mutation R16A of full-length Hfq (printed R16A in b39)
- oligomeric state on SDS-PAGE [2]: only forms hexamer (blue dot) and monomer

B1: RyhB sRNA (structured_RNA)
RNA: GGGCGAUCAGGAAGACCCUCGAGGAGAACCUGAAAGCACGACAUUGCUCACAUUGCUUCCAGUAUUACUUAGCCAGCCGGGUGCUGGCUUUUU
- binding result (Hfq102 (wild-type Hfq)): binds
- binding result [3]: binds

B2: DsrA sRNA (structured_RNA)
RNA: GGGAACACAUCAGAUUUCCUGGUGUAACGAAUUUUUUAAGUGCUUCUUGCUUAAGCAAGUUUCAUCCCGACCCCCUCAGGGUCGGGAUUUUUUU
- binding result [3]: binds

B3: RprA sRNA (structured_RNA)
RNA: GGGACGGUUAUAAAUCAACAUAUUGAUUUAUAAGCAUGGAAAUCCCCUGAGUGAAACAACGAAUUGCUGUGUGUAGUCUUUGCCCAUCUCCCACGAUGGGCUUUUUUUU
- binding result [3]: binds

B4: ChiX sRNA (structured_RNA)
RNA: GGGACACCGUCGCUUAAAGUGACGGCAUAAUAAUAAAAAAAUGAAAUUCCUCUUUGACGGGCCAAUAGCGAUAUUGGCCAUUUUUUU
- binding result (Hfq102 (wild-type Hfq); label: 32P in annealing EMSA): binds
- binding result ([3]; label: 32P in annealing EMSA): binds
